In patent publication US12624096B2, “Anti-tau antibodies and methods of use thereof” (GTInvent Limited, priority 2020, dated 2026):
Entries after “also recorded” stand apart in the source; their conditions may differ.

B1: S1D12: anti-tau clone from immunised sheep, SEQ ID NO: 32 (protein)
scFv: QVQLQESGPSLVKPSQTLSLTCTVSGFSLNNNAVGWVRQAPGKVPESLVGCSSDGTCYYNSALKSRLDITRDTSKNQISLSLSSVTTDDAAVYYCTRGHYSIYGYDYLGTIDYWGPGLLVTVSSEGKSSGASGESKVDDQAVLTQPSSVSGSLGQRVSITCSGSSSNVGGGNSVGWYQHLPGSGLKTIIYDTNSRPSGVPDRFSGSRSGNTATLTINSLQAEDEGDYYCVTGDSTTHDDLVGSGTRLTVLG
modifications: S1D12 amino acid sequence
B2: S1G2: anti-tau clone, SEQ ID NO: 81 (protein)
scFv: QVQLQESGPSLVKPSQTLSLTCTVSGFSLTSNSVGWVRQAPGKAPEWVAGIDTDGEEGYNPALNSRLSITRDTSKSQVSLSLSSVTSEDTAVYYCGRSYRADGLAYGYVQAIDYWGPGLLVTVSSEGKSSGASGESKVDDQAVVTQPSSVSGSLGQRVSITCSGSFIGISSVGWFQQLPGSGLRTIIVASDGRPSGVPDRFSMSKSGNTATLTISSLQAEDEADYFCGSSDRTPYTGVFGSGTRLTVLG
modifications: S1G2 amino acid sequence

Columns and labels:
dGAE [1] = biological target: T1, dGAE (Homo sapiens, UniProt P10636); assay: dGAE fibril assembly, transmission electron microscopy; assay type: biochemical; conditions: dGAE:antibody 4:1 or 1:1, 700 rpm, 37° C., 3 days
T1 sequence (P10636 614-708): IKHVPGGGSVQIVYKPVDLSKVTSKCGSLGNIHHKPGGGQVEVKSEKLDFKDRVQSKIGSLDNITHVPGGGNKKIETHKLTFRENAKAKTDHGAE
Description: (§1) dGAE protein was diluted into 10 mM phosphate buffer, pH 7.4 (PB) with monoclonal antibody s1D12 at a ratio of 4:1 protein: Ab (100 μM dGAE+25 μM s1D12 and 10 μM dGAE+2.5 μM s1D12) or 1:1 (25 μM dGAE+25 μM s1D12).
(§2) As a positive control, dGAE was prepared at a final concentration of 10, 25 or 100 μM in 10 mM PB. Negative controls consisted of dGAE with a non-tau IgG antibody at a ratio of 4:1 (10 μM dGAE+2.5 μM anti-ovalbumin), or antibody alone (25 or 2.5 μM s1D12 and 2.5 μM anti-ovalbumin). Samples were agitated at 700 rpm at 37° C., for 3 days.
Transmission electron microscopy (TEM), circular dichroism (CD) and Thioflavin S (ThS) assays were performed as detailed in Al-Hilaly et, al. (2018) J. Mol. Biol. 430, 4119-4131. Briefly, TEM grids were prepared by adding 4 μL of sample to a carbon-coated grid followed by a wash with milli-Q filtered water then staining twice with 2% uranyl acetate. Grids were air dried and then imaged using a JEOL electron microscope operating at 80 kV.

dGAE [2] = biological target: T1, dGAE; assay: dGAE fibril assembly, circular dichroism; assay type: biochemical; conditions: 100 μM dGAE + 25 μM antibody (4:1), antibody spectrum subtracted
Description: as §1, §2
For CD, 60 μL sample was placed in a 0.1 mm quartz cuvette and placed into a JASCO spectropolarimeter. 100 μL ThS in 20 mM MOPS buffer was added to 50 μL of each sample to a final concentration of 20 μM, mixed well, incubated at room temperature for 10 minutes then fluorescence intensity measured in a Cary Eclipse spectrophotometer using an excitation wavelength of 440 nm. Baseline readings from 10 mM PB were subtracted from CD and ThS measurements.

[3] = Pharmacokinetic study of S1D12 mAb, single dose, plasma and brain (dGAE ligand binding ELISA); assay type: in vivo, mouse; conditions: single dose 30 mg/kg i.p., NMRI mice, plasma
Description: For the PK study, a total of 42 female NMRI mice (Swiss-type mouse, Naval Medical Research Institute) aged 6 months were allocated into six groups according to sample collection time (Table 30 for group size). Animals were injected intraperitoneally with S1D12 (30 mg/kg) and sacrificed 24-, 48-, 72-hours and 7-, 14- and 31-days after injection to collect blood and brain samples. A control group was also included in which animals were sacrificed to collect blood and brain, but no test item was administered.
Blood samples were centrifuged to obtain plasma at 2000×g for 5 min at 6° C., and samples were stored at −20° C. After blood collection, each mouse was perfused with heparinized saline for 2-3 minutes and the entire brain removed rapidly and snap frozen in liquid nitrogen and stored at −80° C.
Briefly, dGAE (1 μg/mL) was used to coat ELISA plates and blocked with 2% Marvel. […] Following washing, HRP-conjugated anti-mouse IgG as detector was added, and the assay developed using TMB solution as normal. The absorbance at 450 nm was read using a Clariostar plate reader (BMG Labtech) and MARS Clariostar software used to calculate S1D12 concentration from a standard curve.
Average values from each group (representing a time point) was plotted (FIG. 10) and the in vivo half-life, Cmax and Tmax calculated by performing a non-compartmental analysis of the plasma data using the PKSolver2.0 software (FIG. 51, Table 31). […] Here a higher coating concertation of dGAE at 10 μg/ml was used to compete off antibody binding to tau present in the brain.

plasma tau = assay: Plasma tau (Simoa) after S1D12 immunotherapy; assay type: in vivo, mouse; conditions: L66 mice
Description: In a six-week repeat-dose study, a total of 12 WT, 12 Line 1 (L1) and 12 Line 66 homozygotes (L66+/*) female mice aged 2-months at the beginning of the study were used (Table 32 for group size). Mice in each genotype were injected intraperitoneally (i.p.) with either vehicle or S1D12 (30 mg/kg), once per week, for six consecutive weeks.
Three-step assays were performed and analysed as per previously described plasma screening methods in this document.

hT40 = hT40 (Homo sapiens, UniProt P10636); assay: Sandwich ELISA, limits of detection (LoD) of antibody pairs; assay type: binding; conditions: S1D12 mAb capture
Sequence of hT40 (P10636 1-441 isoform P10636-8): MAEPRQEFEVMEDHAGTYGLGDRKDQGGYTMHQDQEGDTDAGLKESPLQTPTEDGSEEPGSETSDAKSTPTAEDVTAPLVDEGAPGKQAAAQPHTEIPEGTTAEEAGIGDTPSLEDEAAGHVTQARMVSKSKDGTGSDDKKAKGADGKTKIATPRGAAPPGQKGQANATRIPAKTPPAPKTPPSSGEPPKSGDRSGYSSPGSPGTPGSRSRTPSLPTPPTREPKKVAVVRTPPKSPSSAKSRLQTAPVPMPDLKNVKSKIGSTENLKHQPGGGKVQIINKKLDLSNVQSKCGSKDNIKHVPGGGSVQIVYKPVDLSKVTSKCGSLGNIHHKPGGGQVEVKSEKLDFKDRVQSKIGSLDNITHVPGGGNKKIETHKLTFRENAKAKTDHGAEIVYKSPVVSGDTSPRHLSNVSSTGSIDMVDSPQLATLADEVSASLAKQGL
Description: Full length tau (hT40), at 1 μg/ml starting concentration was added to designated wells and double diluted across rest of the plates and left to incubate at R/T for 1 h. A series of detection scAbs with varying epitope recognition properties were added at 10 μg/ml to designated wells (FIG. 22). For colourimetric detection HRP conjugated anti-HuCk secondary antibody was used and the resulting immunoreaction was developed and absorbance at 450 nm measured as described previously. Cut-off point for a positive binding event was an absorbance value of 0.3 following background subtraction. In order to enhance the assay sensitivity, a chemiluminescent detection method was adopted where 50 μL SuperSignal ELISA Femto Substrate (Thermo Scientific) was added to each well following incubation with anti-HuCK HRP antibody and subsequent washing. The luminescence was read using Clariostar Plus microplate reader. A further modification to this protocol was done where various detection scAbs were directly conjugated with HRP and detected using chemiluminescent protocol as before. The lowest levels of detection achieved using different detection scAbs and a comparison of colourimetric and chemiluminescent methods of detection are shown in Table 28
The assay was conducted using chemiluminescent protocol described above.

Row | Molecule | dGAE fibrils observed by TEM (dGAE [1]) | dGAE secondary structure by CD (dGAE [2]) | Tmax (time of peak plasma concentration) [3] | t1/2 (elimination half-life from plasma) ([3]; non-compartmental analysis) | Cmax ([3]; read-out: Cmax (peak plasma concentration)) | increase in plasma tau vs vehicle, NT1 assay (plasma tau) | plasma tau, NT1 assay (BT2 capture with Tau12 detection) (plasma tau; S1D12 mAb 30 mg/kg weekly for 6 weeks) | increase in plasma tau vs vehicle, BT2-HT7 (plasma tau; did not reach statistical significance) | LoD direct HRP conjugation of detection scAb & chemiluminescence (hT40)
1 | B1 | no fibrils were present; also recorded: no fibril formation is observed | dGAE cannot assemble into β-sheet rich fibrils; also recorded: indicating that dGAE has not assembled into fibrils | 24 h | 256.2 h | 1460 nM | four-fold increase | 3.2 ± 0.42 pg/mL | two-fold increase | 
2 | B2 |  |  |  |  |  |  |  |  | 0.04 ng/mL
